Biological target: 6xHis-p53 (UniProt P04637 1-393)
Assay: EMSA

Chain of 6xHis-p53 (P04637 whole entry): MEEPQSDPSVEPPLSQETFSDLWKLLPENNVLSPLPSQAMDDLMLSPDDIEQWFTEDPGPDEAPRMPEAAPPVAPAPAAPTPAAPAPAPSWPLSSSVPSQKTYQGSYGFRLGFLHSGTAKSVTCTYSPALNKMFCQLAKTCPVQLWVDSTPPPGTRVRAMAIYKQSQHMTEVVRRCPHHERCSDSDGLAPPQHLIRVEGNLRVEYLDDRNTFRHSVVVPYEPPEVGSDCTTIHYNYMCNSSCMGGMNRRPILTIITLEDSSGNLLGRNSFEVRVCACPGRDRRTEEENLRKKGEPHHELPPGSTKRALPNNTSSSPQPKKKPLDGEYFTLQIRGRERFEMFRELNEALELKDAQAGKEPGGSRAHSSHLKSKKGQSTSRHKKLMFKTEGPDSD

B1: GADD45 probe (intron 3 p53RE) (dsDNA)
DNA 1: GTAGCTGATATCGAATTCTCGAGCAGAACATGTCTAAGCATGCTGGGCTCGAGAATTCCTGCAGCC
DNA 2: GGCTGCAGGAATTCTCGAGCCCAGCATGCTTAGACATGTTCTGCTCGAGAATTCGATATCAGCTAC
- binding result: binds

From publication PMC3193277
